Consider one substance from PMC5354831.

The target of this assay is HER3 (human (endogenous in LIM1215)) (UniProt P21860). Briefly: Collaborative Enzyme Enhanced Reactive-immunoassay (CEER); proximity-mediated immunoassay in a multiplexed array format on LIM1215 cell lysates, done by Prometheus Laboratories; cells control-treated or treated 24h with cetuximab (50 ug/mL), lapatinib (1 uM), gefitinib, cetuximab + trastuzumab (20 ug/mL) or cetuximab + pertuzumab (10 ug/mL); read-out in computed units (CU).
Sequence of UniProt P21860 (P21860 20-1342): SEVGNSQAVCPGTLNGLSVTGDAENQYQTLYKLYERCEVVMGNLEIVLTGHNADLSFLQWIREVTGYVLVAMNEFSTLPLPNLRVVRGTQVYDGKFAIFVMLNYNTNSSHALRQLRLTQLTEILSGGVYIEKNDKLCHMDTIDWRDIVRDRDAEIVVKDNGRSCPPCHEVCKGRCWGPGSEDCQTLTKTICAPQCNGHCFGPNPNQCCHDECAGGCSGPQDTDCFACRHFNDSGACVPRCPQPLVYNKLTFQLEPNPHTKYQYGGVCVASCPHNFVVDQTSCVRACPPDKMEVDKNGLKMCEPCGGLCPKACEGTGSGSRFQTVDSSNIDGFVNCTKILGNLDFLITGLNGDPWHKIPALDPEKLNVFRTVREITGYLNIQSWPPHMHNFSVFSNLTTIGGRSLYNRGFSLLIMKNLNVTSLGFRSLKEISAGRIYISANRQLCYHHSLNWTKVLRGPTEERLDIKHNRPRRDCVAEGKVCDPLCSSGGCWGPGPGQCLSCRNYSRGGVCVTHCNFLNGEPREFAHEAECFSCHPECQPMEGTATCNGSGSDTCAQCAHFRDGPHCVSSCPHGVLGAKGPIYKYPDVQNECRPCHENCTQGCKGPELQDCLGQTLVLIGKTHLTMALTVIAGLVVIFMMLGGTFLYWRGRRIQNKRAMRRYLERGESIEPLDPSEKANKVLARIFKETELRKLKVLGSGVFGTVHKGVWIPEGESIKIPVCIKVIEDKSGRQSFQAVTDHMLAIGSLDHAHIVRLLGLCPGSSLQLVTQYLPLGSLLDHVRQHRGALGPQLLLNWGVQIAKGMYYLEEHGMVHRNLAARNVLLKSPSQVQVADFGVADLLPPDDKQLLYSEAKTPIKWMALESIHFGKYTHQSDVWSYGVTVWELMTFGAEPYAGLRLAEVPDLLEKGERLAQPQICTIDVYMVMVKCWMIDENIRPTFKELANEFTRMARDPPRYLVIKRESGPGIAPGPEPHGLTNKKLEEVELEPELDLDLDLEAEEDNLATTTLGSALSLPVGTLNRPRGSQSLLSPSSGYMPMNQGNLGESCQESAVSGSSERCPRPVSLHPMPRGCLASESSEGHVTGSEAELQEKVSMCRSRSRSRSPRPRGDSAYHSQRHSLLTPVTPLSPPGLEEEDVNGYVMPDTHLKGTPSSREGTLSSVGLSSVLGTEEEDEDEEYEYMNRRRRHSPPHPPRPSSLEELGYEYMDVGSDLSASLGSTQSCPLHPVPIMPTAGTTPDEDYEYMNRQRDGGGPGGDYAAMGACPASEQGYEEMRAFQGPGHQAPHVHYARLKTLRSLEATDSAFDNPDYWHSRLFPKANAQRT

Sequence of PI3K p85 (P27986 whole entry): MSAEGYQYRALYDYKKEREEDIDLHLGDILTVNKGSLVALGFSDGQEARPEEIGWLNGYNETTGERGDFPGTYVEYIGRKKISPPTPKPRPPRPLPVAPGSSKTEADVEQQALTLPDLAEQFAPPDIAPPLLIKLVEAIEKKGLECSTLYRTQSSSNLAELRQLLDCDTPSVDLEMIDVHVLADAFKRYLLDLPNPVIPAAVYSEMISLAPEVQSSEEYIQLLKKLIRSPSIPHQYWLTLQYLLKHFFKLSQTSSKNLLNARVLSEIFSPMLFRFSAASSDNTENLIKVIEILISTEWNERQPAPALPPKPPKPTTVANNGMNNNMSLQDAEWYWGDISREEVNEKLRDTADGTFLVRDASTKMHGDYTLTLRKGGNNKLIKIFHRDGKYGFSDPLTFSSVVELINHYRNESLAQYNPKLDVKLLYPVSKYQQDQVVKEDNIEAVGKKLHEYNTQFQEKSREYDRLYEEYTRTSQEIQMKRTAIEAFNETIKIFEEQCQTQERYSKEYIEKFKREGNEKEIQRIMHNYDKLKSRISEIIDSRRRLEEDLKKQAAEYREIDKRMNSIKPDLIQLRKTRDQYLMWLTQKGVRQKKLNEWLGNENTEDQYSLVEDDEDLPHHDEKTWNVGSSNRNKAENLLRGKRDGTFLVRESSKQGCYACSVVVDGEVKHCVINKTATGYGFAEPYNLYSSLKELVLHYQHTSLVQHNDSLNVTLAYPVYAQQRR

As for “PI3K p85 (from UniProt P27986 1-724) (natural protein)”, the fold increase in HER3:PI3K p85 binding, 24h cetuximab against control treatment stood at 5 fold.
